We go through eight molecules from patent US20240317859A1 (FOUNDATION FOR BIOMEDICAL RESEARCH AND INNOVATION AT KOBE, published 2024).

In assay [1] the target is human PD-1 (wild-type), expressed on cells (human, UniProt Q15116 25-288). Briefly: cell-based or functional assay.
Assay [2] addresses Human PD-1/PDCD1 Protein (PD-1) (human, UniProt Q15116 25-167, limits assumed). Briefly: SPR, Biacore 8K; PD-1 captured by anti-His antibody, antibody in flow. The procedure: The binding affinity of each antibody to human PD-1 was measured with Biacore 8K (Cytiva). Briefly, anti-His Tag antibody was immobilized by amine coupling using Amine Coupling Kit and His Capture Kit, onto 8 channels of a sensor chip (provided with 16 flow cells; one channel consisting of two flow cells) which had carboxymethyl dextran immobilized on a gold film. The immobilization was performed by feeding an activation solution (NHS and EDC mixed in equal amounts) at a flow rate of 10 μl/min for 7 minutes, an immobilization solution at a flow rate of 5 μl/min for 7 minutes, and 1 M ethanolamine hydrochloride-NaOH (pH 8.5) at a flow rate of 10 μl/min for 7 minutes. The buffer used at the time of immobilization was 1×HBS-EP+ Buffer. After the immobilization and before applying a sample, Human PD-1/PDCD1 Protein (PD-1) adjusted to 1 μg/ml with 1×HBS-EP+ Buffer was fed to one of the two flow cells of each channel in an amount of 20 μl at a flow rate of 10 μl/min to thereby capture PD-1 on the sensor chip. As regards the other flow cell, 1×HBS-EP+ Buffer was fed in the same manner to prepare a control flow cell. Each antibody was adjusted to 16 nM with 1×HBS-EP+ Buffer, and then subjected to 2-fold 7-step serial dilution using 1×HBS-EP+ Buffer. The resultant sample solution (30 μl) was fed to each flow cell at a flow rate of 10 μl/min and the response was measured. After subtracting the response of control flow cell from the response of the flow cell which was allowed to capture the ligand, KD value was calculated by curve fitting using Biacore 8K Evaluation Software.
Background: In SPR one partner is held on a chip, and binding of the other changes the refractive index at the surface.

Sequence of human PD-1 (wild-type), expressed on cells (Q15116 25-288 limits assumed): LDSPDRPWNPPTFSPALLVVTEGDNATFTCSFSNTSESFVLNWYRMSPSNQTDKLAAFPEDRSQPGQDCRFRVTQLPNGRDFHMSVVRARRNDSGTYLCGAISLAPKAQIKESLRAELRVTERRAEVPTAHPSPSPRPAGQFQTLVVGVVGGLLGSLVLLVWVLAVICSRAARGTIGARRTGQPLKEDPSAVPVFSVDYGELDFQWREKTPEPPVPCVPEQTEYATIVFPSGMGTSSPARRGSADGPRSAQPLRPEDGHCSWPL

B1: HM268-J8 (antibody, human IgG1, V domains shown)
VH: QVQLVQSGPEVKKPGASVKVVCKTSGYTFTSYYIQWVRQVPGQGLEWMGWIYFGDASTKYNEKFKGKTTLTADKSTSTAYMELRSLRSDDTAVYYCASYYGSYFDYWGQGTTVTVSS
VL: DIQMTQSPSSLSASVGDRVTITCRASQDISNYLNWYQQKPDGTVKLLIYSTSRLHSGVPSRFSGSGSGTDYTLTISSLQPEDFATYYCQQGSTLPFTFGQGTKLEIK
notes: also called humanized HM268, VH ver.J / VL ver.8
The term Kd denotes the free concentration of one partner at which half of the binding sites on the other are occupied at equilibrium, for simple one-to-one binding. For B1, in assay [1], the “Cell-cell contact assay” value came out at 63.1 ng/mL. This molecule also registered a Kd in assay [2] of less than 0.00284 nM.

B2: HM268-L7 (antibody, human IgG1, V domains shown)
VH: QVQLVQSGPEVKKPGASVKVVCKTSGYTFTSYYIQWVRQVPGQGLEWMGWIYFGDASTKYNEKFKGRVTMTADTSTSTAYMELRSLRSDDTAVYYCASYYGSYFDYWGQGTTVTVSS
VL: DIQMTQNTSSLSASVGDRVTITCRASQDISNYLNWYQQKPDGTVKLLIYSTSRLHSGVPSRFSGSGSGTDYTLTISSLEQEDFATYYCQQGSTLPFTFGQGTKLEIK
notes: also called humanized HM268, VH ver.L / VL ver.7
In the case of B2, the “Cell-cell contact assay” value in assay [1] worked out at 103 ng/mL. In assay [2], this molecule yielded a Kd of 0.00216 nM.

B3: HM268-L9 (antibody, human IgG1, V domains shown)
VH: QVQLVQSGPEVKKPGASVKVVCKTSGYTFTSYYIQWVRQVPGQGLEWMGWIYFGDASTKYNEKFKGRVTMTADTSTSTAYMELRSLRSDDTAVYYCASYYGSYFDYWGQGTTVTVSS
VL: DIQMTQSPSSLSASVGDRVTITCRASQDISNYLNWYQQKPGKAPKLLIYSTSRLHSGVPSRFSGSGSGTDYTLTISSLQPEDFATYYCQQGSTLPFTFGQGTKLEIK
notes: also called humanized HM268, VH ver.L / VL ver.9
Take B3: the “Cell-cell contact assay” value in assay [1] was 87.4 ng/mL. The dissociation constant Kd in assay [2] stood at 0.0111 nM.

B4: HM268-K7 (antibody, human IgG1, V domains shown)
VH: QVQLVQSGPEVKKPGASVKVVCKTSGYTFTSYYIQWLKQRPGQGLEWIGWIYFGDASTKYNEKFKGRVTMTADKSTSTAYMELRSLRSDDTAVYYCASYYGSYFDYWGQGTTVTVSS
VL: DIQMTQNTSSLSASVGDRVTITCRASQDISNYLNWYQQKPDGTVKLLIYSTSRLHSGVPSRFSGSGSGTDYTLTISSLEQEDFATYYCQQGSTLPFTFGQGTKLEIK
notes: also called humanized HM268, VH ver.K / VL ver.7
For the molecule B4, the “Cell-cell contact assay” value in assay [1] was determined as 43.7 ng/mL. Binding in assay [2] was characterised by a dissociation constant (Kd) of 0.00691 nM.

B5: HM268-K9 (antibody, human IgG1, V domains shown)
VH: QVQLVQSGPEVKKPGASVKVVCKTSGYTFTSYYIQWLKQRPGQGLEWIGWIYFGDASTKYNEKFKGRVTMTADKSTSTAYMELRSLRSDDTAVYYCASYYGSYFDYWGQGTTVTVSS
VL: DIQMTQSPSSLSASVGDRVTITCRASQDISNYLNWYQQKPGKAPKLLIYSTSRLHSGVPSRFSGSGSGTDYTLTISSLQPEDFATYYCQQGSTLPFTFGQGTKLEIK
notes: also called humanized HM268, VH ver.K / VL ver.9
With B5, the “Cell-cell contact assay” value in assay [1] was 150 ng/mL. In assay [2], this molecule came in with a Kd of 0.151 nM.

B6: HM268-J9 (antibody, human IgG1, V domains shown)
VH: QVQLVQSGPEVKKPGASVKVVCKTSGYTFTSYYIQWVRQVPGQGLEWMGWIYFGDASTKYNEKFKGKTTLTADKSTSTAYMELRSLRSDDTAVYYCASYYGSYFDYWGQGTTVTVSS
VL: DIQMTQSPSSLSASVGDRVTITCRASQDISNYLNWYQQKPGKAPKLLIYSTSRLHSGVPSRFSGSGSGTDYTLTISSLQPEDFATYYCQQGSTLPFTFGQGTKLEIK
notes: also called humanized HM268, VH ver.J / VL ver.9
Consider B6, for which the “Cell-cell contact assay” value in assay [1] turned out to be 301 ng/mL. This molecule returned a dissociation constant (Kd) in assay [2] of 0.0252 nM.

B7: HM268-M7 (antibody, human IgG1, V domains shown)
VH: QVQLVQSGPEVKKPGASVKVVCKASGYTFTSYYIQWVRQVPGQGLEWMGWIYFGDASTKYNEKFKGRVTMTADTSTSTAYMELRSLRSDDTAVYYCASYYGSYFDYWGQGTTVTVSS
VL: DIQMTQNTSSLSASVGDRVTITCRASQDISNYLNWYQQKPDGTVKLLIYSTSRLHSGVPSRFSGSGSGTDYTLTISSLEQEDFATYYCQQGSTLPFTFGQGTKLEIK
notes: also called humanized HM268, VH ver.M / VL ver.7
B7: the “Cell-cell contact assay” value in assay [1] was determined as 149 ng/mL. In assay [2], this molecule returned a Kd of 0.012 nM.

B8: HM268-L8 (antibody, human IgG1, V domains shown)
VH: QVQLVQSGPEVKKPGASVKVVCKTSGYTFTSYYIQWVRQVPGQGLEWMGWIYFGDASTKYNEKFKGRVTMTADTSTSTAYMELRSLRSDDTAVYYCASYYGSYFDYWGQGTTVTVSS
VL: DIQMTQSPSSLSASVGDRVTITCRASQDISNYLNWYQQKPDGTVKLLIYSTSRLHSGVPSRFSGSGSGTDYTLTISSLQPEDFATYYCQQGSTLPFTFGQGTKLEIK
notes: also called humanized HM268, VH ver.L / VL ver.8
For the molecule B8, the “Cell-cell contact assay” value in assay [1] stood at 98.2 ng/mL. For the same molecule, the affinity in assay [2], expressed as Kd, was 0.00129 nM.
